The experiment addresses T1, human CD3e/g antigen (ACRO, catalog number CDG-H52W5) (human, UniProt P07766 23-126; P09693 23-116).
T1 construct: Bought reagent used as the Biacore analyte; also called hCD3e/g
The experiment can be described thus: SPR (Biacore 8K), antibody captured via anti-human Fc. How it is done: The equilibrium dissociation constant of binding of CD3 antibodies to human CD3e/g antigen (purchased from ACRO, catalog number CDG-H52W5) was determined by kinetic binding method using Biacore 8K (GE) system. Through the capture method, the carboxylated dextran surface of CM5 chip was first activated with NHS (N-hydroxysuccinimide) and EDC (1-(3-dimethylaminopropyl)-3-ethylcarbodiimide hydrochloride), and then added with an anti-human IgG (Fc) antibody, the free amino group of which could form an amide bond with the activated carboxyl group, thereby being fixed on the chip surface. The anti-human IgG (Fc) antibody could bind to the Fc end of CD3 antibodies to capture the antibodies, and then a series of concentrations of antigen were added to obtain the binding and dissociation curves of antibody and antigen, and the corresponding kinetic constants were calculated by Biacore Evaluation software, as shown in the table below.
Background: SPR reads the build-up and loss of mass on a sensor chip optically.

This is an account of results in patent US20250346668A1 (GENOR BIOPHARMA, published 2025).

Numbering of substitutions follows the chain as printed.

B1: hAb001-17 (antibody, V domains shown)
VH: QVQLVQSGAEVKKPGASVKVSCKASGYSFTNYYMHWVRQAPGQRLEWMGWTYPGNNNIKYNEKFKGRVTITRDTSASTAYMELSSLRSEDTAVYYCARDGYGYYFFDYWGQGTLVTVSS
VL: DIVMTQSPDSLAVSLGERATINCKSSQSLLNNRTRKNYLAWYQQKPGQPPKLLIYWASTRESGVPDRFSGSGSGTDFTLTISSLQAEDVAVYYCKQSYTLRTFGGGTKLEIK
notes: Humanized; constant regions not specified
On to B1, for which the Kd (commonly the free concentration of one partner at which half of the binding sites on the other are occupied at equilibrium, for simple one-to-one binding) stood at 15.7 nM; the koff (usually the first-order rate constant of dissociation) turned out to be 0.00452 s⁻¹; the kon (commonly the rate constant with which the complex forms) amounted to 288000 M⁻¹ s⁻¹.

B2: hAb007-21 (antibody, V domains shown)
VH: QVQLVQSGAEVKKPGASVKVSCKASGSTFTDNYIHWVRQAPGQRLEWIGWIYPGSVNIKYNEKFKDRVTITADTSASTAYMELSSLRSEDTAVYYCARDISRYYFDYWGQGTTVTVSS
VL: B1 VL with N32S, Y98F, T99I
notes: as for B1
B2: the Kd turned out to be 8.06 nM, the dissociation rate constant (koff) amounted to 0.00377 s⁻¹ and the kon worked out at 468000 M⁻¹ s⁻¹.

B3: hAb007-19 (antibody, V domains shown)
VH: B2 VH with I48M, A72R
VL: B1 VL with I21M, N32S, Y98F, T99I
notes: as for B1
With B3, binding was characterised by a dissociation constant (Kd) of 9.32 nM, the koff turned out to be 0.00317 s⁻¹ and the kon worked out at 340000 M⁻¹ s⁻¹.

B4: hAb001-24 (antibody, V domains shown)
VH: B1 VH with M48I, R72A
VL: B1 VL with I21M, N22S, S69T
notes: as for B1
Molecule B4 returned a Kd of 16.6 nM, a dissociation rate constant (koff) of 0.00655 s⁻¹ and a kon of 394000 M⁻¹ s⁻¹.

B5: hAb001-25 (antibody, V domains shown)
VH: B1 VH with M48I, V68A, R72A
VL: B1 VL
notes: as for B1
As to B5, the affinity, expressed as Kd, was 22.6 nM; the koff is 0.00896 s⁻¹; the on-rate (kon) came out at 397000 M⁻¹ s⁻¹.

B6: hAb007-20 (antibody, V domains shown)
VH: B2 VH with I48M, A72R
VL: B1 VL with I21M, N32S, S69T, Y98F, T99I
notes: as for B1
In turn, B6 had a Kd of 11.1 nM, a koff of 0.00375 s⁻¹ and a kon of 337000 M⁻¹ s⁻¹.

B7: hAb001-32 (antibody, V domains shown)
VH: B1 VH with R38K, M48I, V68A, R72A
VL: B1 VL with I21M, N22S, S69T
notes: as for B1
For the molecule B7, the Kd was 16.8 nM, the koff is 0.00497 s⁻¹ and the kon came out at 296000 M⁻¹ s⁻¹.

B8: hAb001-20 (antibody, V domains shown)
VH: B1 VH
VL: B1 VL with I21M, N22S, S69T
notes: as for B1
For the molecule B8, the dissociation constant Kd was 10.8 nM, the koff was found to be 0.00303 s⁻¹ and the kon came out at 281000 M⁻¹ s⁻¹.

B9: hAb001-30 (antibody, V domains shown)
VH: B1 VH with R38K, M48I, V68A, R72A
VL: B1 VL with S69T
notes: as for B1
In turn, B9 returned a Kd of 25.8 nM, a koff of 0.00835 s⁻¹ and a kon of 324000 M⁻¹ s⁻¹.

B10: hAb001-19 (antibody, V domains shown)
VH: B1 VH
VL: B1 VL with I21M, N22S
notes: as for B1
B10 came in with a Kd of 94.5 nM, a koff of 0.0354 s⁻¹ and a kon of 375000 M⁻¹ s⁻¹.

B11: hAb007-17 (antibody, V domains shown)
VH: B2 VH with I48M, A72R
VL: B1 VL with N32S, Y98F, T99I
notes: as for B1
On to B11, for which the Kd stood at 5.85 nM, the koff came to 0.00225 s⁻¹ and the kon stood at 385000 M⁻¹ s⁻¹.

B12: hAb007-18 (antibody, V domains shown)
VH: B2 VH with I48M, A72R
VL: B1 VL with N32S, S69T, Y98F, T99I
notes: as for B1
For the molecule B12, the Kd came out at 6.01 nM, the koff worked out at 0.00241 s⁻¹ and the kon is 401000 M⁻¹ s⁻¹.

B13: hAb001-29 (antibody, V domains shown)
VH: B1 VH with R38K, M48I, V68A, R72A
VL: B1 VL
notes: as for B1
In turn, B13 returned a Kd of 22.8 nM, a koff of 0.00722 s⁻¹ and a kon of 316000 M⁻¹ s⁻¹.

B14: hAb001-31 (antibody, V domains shown)
VH: B1 VH with R38K, M48I, V68A, R72A
VL: B1 VL with I21M, N22S
notes: as for B1
B14 registered a dissociation constant (Kd) of 19.7 nM, a koff of 0.00624 s⁻¹ and a kon of 317000 M⁻¹ s⁻¹.

B15: hAb001-18 (antibody, V domains shown)
VH: B1 VH
VL: B1 VL with S69T
notes: as for B1
With B15, the Kd was 35.2 nM, the dissociation rate constant (koff) worked out at 0.0121 s⁻¹ and the kon is 343000 M⁻¹ s⁻¹.

B16: hAb008-21 (antibody, V domains shown)
VH: QVQLVQSGAEVKKPGASVKVSCKASGYTFTDYTVNWVRQAPGQRLEWIGYINPFNSYTKYNQKFKDRVTITADTSASTAYMELSSLRSEDTAVYYCANSVSTYWGQGTTVTVSS
VL: DVVMTQSPLSLPVTLGQPASISCKSSQSLLDSDGKTYLNWFQQRPGQSPRRLIQLVSKLNSGVPDRFSGSGSGTDFTLKISRVEAEDVGVFYCWQGTHFPRTFGGGTKLEIK
notes: as for B1
As to B16, the Kd came out at 18.6 nM, the koff was 0.00382 s⁻¹ and the kon was determined as 205000 M⁻¹ s⁻¹.

B17: hAb008-19 (antibody, V domains shown)
VH: B16 VH with I48M, A72R, N98R
VL: B16 VL with F41L, Q42L
notes: as for B1
With B17, the Kd was found to be 26.1 nM, the koff turned out to be 0.00573 s⁻¹ and the kon was determined as 219000 M⁻¹ s⁻¹.

B18: hAb008-23 (antibody, V domains shown)
VH: B16 VH
VL: B16 VL with F41L, Q42L
notes: as for B1
The molecule B18 came in with a Kd of 17.4 nM, a koff of 0.00487 s⁻¹ and a kon of 280000 M⁻¹ s⁻¹.

B19: hAb008-30 (antibody, V domains shown)
VH: B16 VH with R38K, V68A, Y95F
VL: B16 VL with F41L
notes: as for B1
B19 yielded a Kd of 20.4 nM, a koff of 0.00522 s⁻¹ and an association rate constant (kon) of 256000 M⁻¹ s⁻¹.

B20: hAb008-28 (antibody, V domains shown)
VH: B16 VH with R38K, V68A, Y95F
VL: B16 VL with Q54Y, F91Y
notes: as for B1
B20 returned a Kd of 27.2 nM, a koff of 0.00441 s⁻¹ and a kon of 162000 M⁻¹ s⁻¹.

B21: hAb008-27 (antibody, V domains shown)
VH: B16 VH with V68A, Y95F
VL: B16 VL with F41L, Q42L
notes: as for B1
For B21, the affinity, expressed as Kd, was 18 nM; the koff came out at 0.00475 s⁻¹; the kon was found to be 264000 M⁻¹ s⁻¹.

B22: hAb008-25 (antibody, V domains shown)
VH: B16 VH with V68A, Y95F
VL: B16 VL
notes: as for B1
B22 came in with a Kd of 36.8 nM, a dissociation rate constant (koff) of 0.00741 s⁻¹ and a kon of 202000 M⁻¹ s⁻¹.

B23: hAb008-20 (antibody, V domains shown)
VH: B16 VH
VL: B16 VL with Q54Y, F91Y
notes: as for B1
B23 yielded a Kd of 14.5 nM, a koff of 0.00152 s⁻¹ and a kon of 105000 M⁻¹ s⁻¹.

B24: hAb008-18 (antibody, V domains shown)
VH: B16 VH with I48M, A72R, N98R
VL: B16 VL with F41L
notes: as for B1
Take B24: the affinity, expressed as Kd, was 33.9 nM; the koff was 0.00691 s⁻¹; the kon is 204000 M⁻¹ s⁻¹.

B25: hAb008-16 (antibody, V domains shown)
VH: B16 VH with I48M, A72R, N98R
VL: B16 VL with Q54Y, F91Y
notes: as for B1
As to B25, the Kd amounted to 18.6 nM, the koff was determined as 0.00189 s⁻¹ and the kon was determined as 101000 M⁻¹ s⁻¹.

B26: hAb008-29 (antibody, V domains shown)
VH: B16 VH with R38K, V68A, Y95F
VL: B16 VL
notes: as for B1
Turning to B26, the Kd was 20.8 nM, the koff is 0.00378 s⁻¹ and the kon was 182000 M⁻¹ s⁻¹.

B27: hAb008-24 (antibody, V domains shown)
VH: B16 VH with V68A, Y95F
VL: B16 VL with Q54Y, F91Y
notes: as for B1
With B27, the affinity, expressed as Kd, was 21.5 nM; the koff was found to be 0.00269 s⁻¹; the kon was 125000 M⁻¹ s⁻¹.

B28: hAb008-17 (antibody, V domains shown)
VH: B16 VH with I48M, A72R, N98R
VL: B16 VL
notes: as for B1
Turning to B28, the Kd came out at 7.57 nM, the koff was found to be 0.00126 s⁻¹ and the kon is 167000 M⁻¹ s⁻¹.

B29: hAb008-31 (antibody, V domains shown)
VH: B16 VH with R38K, V68A, Y95F
VL: B16 VL with F41L, Q42L
notes: as for B1
For the molecule B29, the Kd was 15.1 nM, the koff turned out to be 0.00381 s⁻¹ and the kon worked out at 252000 M⁻¹ s⁻¹.

B30: hAb008-22 (antibody, V domains shown)
VH: B16 VH
VL: B16 VL with F41L
notes: as for B1
The molecule B30 gave a Kd of 20.6 nM, a koff of 0.00588 s⁻¹ and a kon of 285000 M⁻¹ s⁻¹.
